Test results: the nanobody polyreactivity screen of Harvey et al. (2022)

Assay: yeast display, Sf9 membrane polyspecificity reagent, FACS + sequencing; frameworks hold sequencing errors
Summary of the method: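 Using colony PCR, genes from sorted yeast display clones were amplified, then sequenced on MiSeq at 2 × 250 and filtered by CDR length. The clones had been stained with 10% biotinylated, detergent-solubilized Sf9 membrane reagent for 1 hour at 4 °C and sorted by FACS into low and high (top ~1%) gates on anti-HA and streptavidin fluorescence. Polyreactivity labels come from the gate of origin.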

Sequence	polyreactivity (PSR sort gate)
QVQLVESGGGLVQAGGSLSLSCAASGRIFRRYAMGWYRPAPGKERELVASISSGGSTNYADSVKGRFTISRDNAKNTVYLQMNSLKPEDTAVYYCDADRARYYYQAYGAYGYWGQGTQVTVSS	high polyreactivity
QVQLVESGGGLVQAGGSLSLSCAASGRIFSWYDMGWYRQAPGKERELVAAISSGGSTKYADSVKGRFTISRDNAKNTVYLQMNCLKPEDTAVYYCAARLPRRYTREGYWGQGTQVSVSS	high polyreactivity
QVQLVESGGGLVQAGGSLSLSCAASGRILSLNAMGWYRQAPGKERELVAGIRKRGGSTYYADSVKGRFTISRDNAKNTVYLQMNSLKPEDTAVYYCAADGTLFSEYYWFFGYHDYWGQGTQVNVSS	high polyreactivity
QVQLVESGGGLVQAGGSLSLSCAASGRSWFGNAMGWYRQAPGKERELVASISTRGGSTYYADSVKGRFTISRDNAKNTVYLQMNSLKPEDTAVYYCAKRGRDRRIYGYWGQGTQVTVSS	high polyreactivity
QVQLVESGGGLVQAGGSLSLSCAASGRTFANYAMGWYRHAPGKETEFVAVITYSGGNTYYADSVKGRFTISRDNAKNTVYLQMNSLKPEDTAVYYCAKGRPYRNGLYYYWGQGTQVTVSS	high polyreactivity
QVQLVESGGGLVQAGGSLSLSCAASGRTFGYNAKGWYRQAPGKERELVASISYRGGSTYYADSVKGRFTISRDNAKNSVYLQMNSLKPEDTAVYYCNKYYVLREYYWGQGTQVTVSS	high polyreactivity
QVQLVESGGGLVQAGGSLSLSCAASGRTFKYYAMGWYRQAPGKERELVATITWSGTSTNYADSVKGRFTISRDNEKHTVYLQMNSLKPEDTAVYYCAARSKRRNYDYWGQGTQVTVSS	high polyreactivity
QVQLVESGGGLVQAGGSLSLSCAASGRTFLIYAMGWYRQAPGKERELVAAITSGDNTYYADSVKGRFTISRDNAKNTVYLQMNSLKPEDTAVYYCAAGGYVRNYYTYEHWGQGTQVTVSS	low polyreactivity
QVQLVESGGGLVQAGGSLSLSCAASGRTFNSNAMGWYRQAPGKERELVAAISNRGTRTYYADSVKGRFTISRDNAKNTVYLQMNSLKPEDTAVYYCAASERDQRFKHYYWGQGTQVTVSS	high polyreactivity
QVQLVESGGGLVQAGGSLSLSCAASGRTFSQYAMGWYRPAPGTERELVAAIDRTGDSTYYADSVKGRFTISRDNAKNTVYLQMNSLKPEDTAVYYCNRRYTRVRSRKGYDYWGQGTQVTVSS	high polyreactivity
QVQLVESGGGLVQAGGSLSLSCAASGRTFVKNTMGWYRQAPGKERELVAAISSSGGSTYYADSVKGRFTISRDNAKNTVYLQMNSLKPEDTAVYYCAVSYPYKHAGGWYAYNYWGQGTLVTVSS	high polyreactivity
QVQLVESGGGLVQAGGSLSLSCAASGRTFYAYAMGWYRQAPGTERELVACIDKSGGSPYYADSVKGRFTISRTMRRYRLFTDEQPETGRYRGLLLRCWCVVLSDIQFWGEFDYDYWGQGTQVTVSS	low polyreactivity
QVQLVESGGGLVQAGGSLSLSCAASGSIFAQYAMGWYRQAPGKERELVATISSVGSTNYADSVKGRFTISRANAKNTVYLQMNSLKPEDTAVYYCAADYRHDTFSNEYDYWGQGTQVTVSS	low polyreactivity
QVQLVESGGGLVQAGGSLSLSCAASGSIFASYVMGWYRPAPGKEREMVAGIDTSGGSTFYADSVKGRFTISRDNAKNTVYLQMNSLKPEDTAVYYCAADTWYRGRWEFDYWGQGTQVTVSS	low polyreactivity
QVQLVESGGGLVQAGGSLSLSCAASGSIFGTNAMGWYRQAPGKERELVAAISSSGASTYYADSVKGRFTISRDNAKNSVYLQMNSLKPEDTAVYYCARGYTYQSSSFYYWGQGTQVTVSS	low polyreactivity
QVQLVESGGGLVQAGGSLSLSCAASGSIFYNYAMGWYRQAPGKEREFVAAISWSGDTTYYADSVKGRFTISRDNAKNTVYLQMNSLKPEDTAVYYCNADIYASEYYYWGQGTQVTVSS	low polyreactivity

Sequence	polyreactivity (PSR sort gate)
QVQLVESGGGLVQAGGSLSLSCAASGSILVPYTMGWYRQAPGKERELVASISYSGGSTYADSVKGRFTISRDNAKNTVYLQMNSLKPEDTAVYYCAASLPPWYPGDDFYYWGQGTQVTVSS	low polyreactivity
QVQLVESGGGLVQAGGSLSLSCAASGSIVAYNAMGWYRQAPGKERELVAAITDSGGSTFYADSVKGRFTISRDNAKNTVYLQMNSLKPEDTAVYYCATSGDRLVWGQGTQVTVSS	low polyreactivity
QVQLVESGGGLVQAGGSLSLSCAASGSTFGLNASGWYRQAPGKEREFVAAITSGGTYYADSVKGRFTISRDNAKYTVYLHMYSLKPEDTSVYYCAADGTWSIYGGMYYWGQGTQVTVSS	low polyreactivity
QVQLVESGGGLVQAGGSLSLSCAASGSTFKHYAMGWYRKAPGKERELVAAISSRGGSTHYADSVKGRFTISRDNAKNTVYLQMNSLKPEDTAVYYCARDTDPQSSRSSDYDYWGQGTQVTVSS	low polyreactivity
QVQLVESGGGLVQAGGSLSLSCAASGSTFKRYAMGWYRQAPGKERDLVASISSGGSTNYADSVKGRFTISRDNAKNTVNLQMNSLKPEETAVYYCAVSYRSFRYYWERYYSWGQGTQVTVSS	high polyreactivity
QVQLVESGGGLVQAGGSLSLSCAASGSTFWYYAMGLYRQAPGKERELVAAITRGGNTYYADSVKGRFTISRDNAKNTVYLQMNSLKPEDTAVYYCAAGFYLLGKYDYWGQGTQVTVSS	high polyreactivity
QVQLVESGGGLVQAGGSLSLSCAASGSTFYPYAMGWYRQAPGTERELVAAISSGGSTSYADSVKGRFTISRDNAKNTVYLQMNSLKPEDTAVYYCAAEGPEIKYYYWGQGTQVTVSL	low polyreactivity
QVQLVESGGGLVQAGGSLSLSCAASGSTIVYYAMGWYRPAPRKERELVAAINYSSGSTYYADSVKGRFTISRDNSKKTVYLQMNSLKPEDRAVYYCATDLLYYQYYSEYDYWGQGTQVTVSS	high polyreactivity
QVQLVESGGGLVQAGGSLSLSCAATGRTFYHYVMGWYRQAPGKERELVAAISVSGGRTYYADSVKGRFTISRDNAKNTVYLQMNSLKPEDTAVYYCNARYGHRVRKEAGLSYYWGQGTQVTVSS	high polyreactivity
QVQLVESGGGLVQAGGSLSLSCAATGSTLKFNAMGWYRQAPGKERELVAAINFSGGSTYYADSVKGRFTISRDNAKNTVYLQMNSLKPEDTAVYYCAAEASYYSRSVRWRYDYYYWGQGTQVTVSS	high polyreactivity
QVQLVESGGGLVQAGGSLSLSCDASGSTFYTYAMGWSRQEPGKERELVAAITSSGGSTYYADSVKGRFTISRDNAKNTVYLLMNSLKPEDTAVYYCAARVLGGFGFWGQGTQVTVSS	high polyreactivity
QVQLVESGGGLVQAGGSLSLSWAASGFIFRLYAMGWYRQAPGKERELVSGITQRGGRTYYADSLKGRFTISRDNANNTVYLQMNSLKPEDTAVYYCAADRCEYVYWGQGTQVTVSS	high polyreactivity
QVQLVESGGGLVQAGGSLSLTCAAYGRTITRYVMGWYRQAPGKERELVAYISRGGSTNYADSVKGRFTISRDNAKNTVYLQMNSLKPEDSAVYYCAARFSWGGYYSTTYPLTHDYWGQGTQVNVSS	high polyreactivity
QVQLVESGGGLVQAGGSLSLTCDASGFILYYYAMGRYRQAPGKERELVAAIDWDGDRTYYADSVKGRFTISRDIAKNTVYLQMNSLKPEDTAVYYCAAEWPVNFDYWGQGTQVTVSS	low polyreactivity
QVQLVESGGGLVQAGGSPLLSCAASGSIFPSYDMGWYRQAPGKERELVAPLSWSGSTTYSADSVKGRFTISRDNAKNTVSLQMNSLKPEDTAVYYCAVDSNPPDWWAVIYGYWGQGTQVTVSS	low polyreactivity
QVQLVESGGGLVQAGGSPRLSCAASGFTFYLYAMGWYRQAPGKERELVAAITRVGSTYYADSVKGRFTISRDNAKNTVYLQMNSLKPEDSAVYYCATDLSQVGFDYWGQGTQVSVSS	high polyreactivity
